US20160279247A1, “CYCLIC PEPTIDE” (THE SECRETARY OF STATE FOR BUSINESS, INNOVATION & SKILLS OF …, published 2016)
Where no end group is shown, it is not given here.

Molecular target: T1, D2 peptide (C-terminal amide ('am'))
T1 peptide: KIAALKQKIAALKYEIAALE
Experiment: CD spectroscopy, thermal denaturation of the equimolar mixture (100 uM in each peptide)
Method: CD spectra were recorded on an Applied Photosystem Chirascan spectropolarimetre fitted with a Peltier temperature controller. All measurements were taken in ellipticities in mdeg and after baseline correction were converted to mean residue ellipticity (MRE; deg cm² dmol res⁻¹) by normalising for the concentration of peptide bonds and cuvette pathlength. Aqueous peptide solutions (300 μL, 100 μM in each peptide unless stated otherwise) were prepared in filtered (0.22 μm) 10 mM MOPS or phosphate buffer, pH 7.4. To calculate the percent α-helix, the equation, −100([q]₂₂₂+3000)/33 000), was used.
Thermal denaturation curves (solid lines) and their first derivatives (dashed lines) for SaNet (FIG. 8a), D1-D2 (FIGS. 8b) and D1 (FIG. 8c); and CD spectra following the thermal unfolding of D1-D2 (FIGS. 8d) and D1 (FIG. 8e); 10° C. (dotted line) and 90° C. (dashed line) with intervening spectra recorded every 10° C. (solid lines).

transition midpoint of thermal unfolding of the D1+D2 mixture: ~55 ° C.
Binder: EIAALEQEIAALEYKIAALK-NH2 [D1 peptide]
